Measurements reported in article PMC12291119, “In Vitro Selection of Cyclized, Glycosylated Peptide Antigens That Tightly Bind HIV High Mannose Patch Antibodies” (ACS Central Science, 2025).

Columns and labels:
Test in all cases: BLI; glycopeptides immobilized via biotin on a streptavidin biosensor; series of 2-fold dilutions of antibody
[1] = molecular target: H1 glycopeptide (peptide 1)
[2] = molecular target: H1 mutant with IGDIR changed to IAAIA (peptide 5)
[3] = molecular target: H1 mutant without the glycan at the first of the three glycosylation sites (peptide 3)
[4] = molecular target: H1 mutant without the glycans at the second and third glycosylation sites (peptide 4)
[5] = molecular target: H22 glycopeptide (peptide 2)
[6] = molecular target: L1 glycopeptide (peptide 8)
[7] = molecular target: acyclic H1 variant (peptide 7)
[8] = molecular target: random scrambled version of the H1 sequence containing three glycans and cyclization (peptide 6)

B1: PGT128 (antibody, V domains shown)
VH: QPQLQESGPTLVEASETLSLTCAVSGDSTAACNSFWGWVRQPPGKGLEWVGSLSHCASYWNRGWTYHNPSLKSRLTLALDTPKNLVFLKLNSVTAADTATYYCARFGGEVLRYTDWPKPAWVDLWGRGTLVTVSS
VL: QSALTQPPSASGSPGQSITISCTGTSNNFVSWYQQHAGKAPKLVIYDVNKRPSGVPDRFSGSKSGNTASLTVSGLQTDDEAVYYCGSLVGNWDVIFGGGTKLTVL
**Q.** How did the Kd [1] turn out when B1 was run?
**A.** 0.52 nM

**Q.** What about the fold decrease in binding against H1 (peptide 1) [2] of the same binder?
**A.** 26 fold

**Q.** What about the fold loss of recognition against H1 (peptide 1) [3] of the same binder?
**A.** 2 fold

**Q.** What about the fold decrease in binding against H1 (peptide 1) [4] of the same binder?
**A.** 40 fold

**Q.** And the Kd [5]?
**A.** 16.9 nM

**Q.** And the Kd [6]?
**A.** 2.37 nM

**Q.** What about the Kd [7] of the same binder?
**A.** 90 nM

**Q.** And the Kd [8]?
**A.** 251 nM
